The DeepSol protein solubility set

test: soluble on expression in E. coli; label from the status in PepcDB or PDB records

Row | Sequence | soluble on expression in E. coli
1 | MALPLLPGNSFNRNVGKEKFHKSQHWGFCNNVMMLVSDEKPGIGGEPLLGQKIKPKCSIYPKGDGSDVPSWVAFDKQVLSFDAYLEEEVLDKSQTNYRIRYYKIYFYPEDDTIQVNEPEVKNSGLLQGTSIRRHRITLPPPDEDQFYTVYHFNVGTEVVFYGRTFKIYDCDAFTRNFLRKIGVKVNPPVQCPEDPYMKIRREVVEHVEPLRPYESLDTLKQFLQYHGKILCFFCLWDDSVSMFGDRRELILHYFLCDDTIEIKELLPHSSGRDALKMFLRRSKLPKNCPPRVYQPGQITDRAVLNSYGDFIKNQADGYLFDRYKLGKVDQEFYKDSDLSLGVTINVWGRKVLLYDCDEFTKSYYKSKYGIENFTSVSCKPPSPPPKIERKFPPYNGFGSEEDSLRNCIDLKPTPHRRNFKKFMEKDSYGSKSNILRFFAKLVTDKCVDLDRMFVISYYLGDDTISVFEPIERNSGIAGGMFLKRSRVKKPGQEVFKSELSEYIKAEELYIGVTVNVNGYLFRLLNADEYTLNYMEQNTDKYPFSNLKLALQKLKQEEGKSRELKQVFKAADSKHTNMVDYNTFRDILMSLTVGNLAEQEFVTIARHYRVPEGTCSDMDFLIALAHEKFKKNMFENFDTFIYSCVYEDREKKNVLPTKDIKRLCKSSRLPLSDDLLESLLSRFEDSEKQIDYKSFFSALNWRKNPVPELQPASYLKERCEDVWLGMPSPIPAKYIDYWTFLKDAFGLEEE | soluble
2 | MDYDRYKLFVGGIAKETSEEALKQYFSRYGAVLEAVVAKEKVTGKPRGFGFVRFANDCDVVKALRDTHFILGKPVDVRKAIRKHELYQQPFSMQFLERKVQQMNGGLREMSSNGVTSRTKKIFVGGLSSNTTEEEFKSYFERFGRTTDVVVMHDGVTNRPRGFGFVTYDSEDSVEVVMQSNFHELSDKRVEVKRAIPKEGIQSNNGNAVNIPPSYSSFQATPYVPEQNGYGMVLQFPPPVFGYHHNVQAVQYPYGYQFTAQVANVSWNNPIMQPTGFYCAPPHPTPPPTNNLGYIQYMNGFDLSGTNISGYNPLAWPVTGDAAGALIHQFVDLKLDVHSQAHQRMNGGNMGIPLQNGTYI | soluble
3 | GMSEPEVPFKVVAQFPYKSDYEDDLNFEKDQEIIVTSVEDAEWYFGEYQDSNGDVIEGIFPKSFVAVQG | soluble
4 | GSFTGQGDFHLLDHRGRARCKADFRGQWVLMYFGFTHCPDICPDELEKLVQVVRQLEAEPGLPPVQPVFITVDPERDDVEAMARYVQDFHPRLLGLTGSTKQVAQASHSYRVYYNAGPKDEDQDYIVDHSIAIYLLNPDGLFTDYYGRSRSAEQISDSVRRHMAAFRSVLS | soluble
5 | MKIMILGIDIGGANTKITEIEGDNYKIHHIYFPMWKKKDELEDLLKNYNDNVDYVALVMTAELADCYKTKKEGVEDIIDKVEKAFNCPVYVFDVNGNFLTSEEAKKNYLDVSASNWNATAKFVAEFIKDSCILVDMGSTTTDIIPIKDKEVLAEKTDLDRLMNNQLVYVGTLRTPVSFLANKIEFRGKLTNLSSEYFAITADISLILNKITEEDYTCDTPDGAGKDFESCLTRLVRVLCADREMVKDDELIDFANKLYNKLLELIRENVDTIAKRYNLNDVVITGLGEEILKDALDEYNIISIKETYGKDVSLATPSFAVAKLLQKQLDKLEHHHHHH | not soluble
6 | MSLATTTSTDNTGLLDVLAPAYKKDTGVDLKWVAVGTGNALKLGENCDVDVVFVHAPKVELEYVEKGFGIDRTPVMYNDFVIIGNPSFKQKFTGMSVAEAFKLIEKEQVKFVSRGDKSGTHSKEREVWKEALGKIPEKESWYIEAGQGMLATINIAEEQKGLTLTDRGTFIKYESNHKGKPPMVIVLEGDNTLKNFYSIMAVNPKRCEKADYKGAKQFIDWIVSEKMQAEIANFKLLDKQLFTPDAKTREGHHHHHH | soluble
7 | MGSDKIHHHHHHMITRLHEPYLALLQQAMLAATPSGSRVALDLGCGDGSKTRWLRACSASDALIVGVDRDGSVLRAADDMMFIAGDASHLPLRDACIDLVWCIAALNLFPHRHLALREMWRVLRHGGTLVVASAGEYWVRLRNHPAPLIAALPDTPLPLPPADGLDEEWLLLMAAAGFQPRQTQAYLLDGGRLAQVALINSEALTSYLSLPPCASPVADPEPRHLLIVTSARKG | not soluble
8 | MQTEFLTGAPTRSAAFPVTGGDWGTAGILQTPTARMNDAGEASLSMSHVSPYTRLNFALQPLDWLEIGFRYTDVSNQPYGPVSLSGTQSYKDKSIDAKIRLWRESAYLPDVAVGFRDIAGSGLFSGEYLVASKRTGPFDWSVGLGWGYMGARGNLRNPLSMISRRFDDRANSATPNGGELGYGSWFRGRVSPFGGVQYQTPDERLILKAEYDGNDYRHEPFGQVLKERSPFNFGAVYRATRNIDLSVGFERGTRVMFGVSLHGNLKRATMPKLGNPPPVPVTQPAANAGPRTHAAGAPTRGGRSAVASTPRIEGASPSPFDRDWSDTVAQLQAQTNWHVRSIRALGMDLVIEFDDVDAFYLQDQIDRIATILNRDAPLNVRTFHVVALTHGVPVADYQVQRTQWFASRTRALVPSEVAPATTLGRPLTNQSIDMLPPLFEQRPRAFVLSVGPGYQQTLGGPNGFLLYQISANAYGELRMPGGAWLGGELNVGLVDNYGKFTYTADSKLPRVRTYLREYLTTSRVTLPLLQLTKIGRLGNDQFYSVYGGLLESMFAGVGVEWLYRPAHSRLAIGVDVNAVRQRGFRQDFSMRGYKTLTGHVTAYWDTGWQGVQINLSVGQYLAKDKGATLDISRRFRNGVVIGAYATKTNVSPAQFGEGSFDKGIYVTIPFDAMMTRSSSSIANLRWNPVTRDGGAKLDRRYPLYDLTDMGERRSLWYAPPDGAVSPLEHHHHHH | not soluble
9 | MVRANKRNEALRIESALLNKIAMLGTEKTAEAVGVDKSQISRWKRDWIPKFSMLLAVLEWGVVDDDMARLARQVAAILTNKKRPAATERSEQIQMEF | soluble
10 | MAHHHHHHMLGEGLDIGFYAEDAYAAYVTDLATSLHLVPHCRNARGATLEVVFTGPFHDLSAYEEAVKQGKLVPYAELPWPVAEERGVQGVSGATLSVTLHGWIEKLNAARKVQLMEPLFPAAELGATIAEICVMGDAGNSAPCAFASTSPPCVAESAGTSNEKGTHPSLKPSRFRILGSLDFLLHLSSRDWLMGESSVPADSPSADGRDEANPNFAVGADDATRAAHACRDALEQRDDVALARNAVNTVIKMAQMAEEHPGEVGSVFVDAKERVEYIQFSAQ | not soluble
11 | LLEKHGVVVRSSNYELYADLSERMMNVIGRFCDNQYIYSIDESFLYFDHYESCINDWHEYGHKIRKAIWKETRLPVGVGFGETATLSKAANHAAKKLSGFN | not soluble
12 | MHHHHHHMNPERSERIEIPVLPLRDVVVYPHMVIPLFVGREKSIRCLEAAMDHDKKIMLVAQKEASTDEPGVNDLFTVGTVASILQMLKLPDGTVKVLVEGLQRARISALSDNGEHFSAKAEYLE | soluble
13 | MLDKLGGIAVQPEALTWLLTPCRFKAELLTRIENAKTSIYIAALYLEDDEAGREILQVLMTAKANNPALDIKVLVDFHRARRGLIGHKGDSGNYLMYRKVMAEAKHPIEIMGVPVKSREFMGVLHLKGFVIDDAVIYSGASLNNIYLQQNDKYRFDRYHVIESAELARSMRAMIQRYIIADPAVTSLTQDAQQEVLPPKTDVRSFKLRLSQAQYEFNETRSGNRVTPLLGLGRKHNLLNKTVIAMVEESKDRLFICTPYFNPPYILVRALAKHLRKGKRIDIVVGDKTANDFYIPPEQDFSTIGALPYLYEQSLRKFAKRQQWAIDNGQLNIHLWKHGINSYHLKGISTDGRKHLITGSNLNPRAWALDLENGILIHDETGSWKAQFEAEQAHILEHTQRLYHYSQVDTLQSYPDPVKKIMNRIRRLKADFLLRRILLEHHHHHH | soluble
14 | MPAENIVEVHHLKKSVGQGEHELSILTGVELVVKRGETIALVGESGSGKSTLLAILAGLDDGSSGEVSLVGQPLHNMDEEARAKLRAKHVGFVFQSFMLIPTLNALENVELPALLRGESSAESRNGAKALLEQLGLGKRLDHLPAQLSGGEQQRVALARAFNGRPDVLFADEPTGNLDRQTGDKIADLLFSLNREHGTTLIMVTHDLQLAARCDRCLRLVNGQLQEEA | soluble
15 | GAAAAMSICPHIQQVFQNEKSKDGVLKTCNAARYILNHSVPKEKFLNTMKCGTCHEINSGATFMCLQCGFCGCWNHSHFLSHSKQIGHIFGINSNNGLLFCFKCEDYIGNIDLINDAILAKYWDDVCTKTMVPSMERRDGLSGLINMGSTCFMSSILQCLIHNPYFIRHSMSQIHSNNCKVRSPDKCFSCALDKIVHELYGALNTKQASSSSTSTNRQTGFIYLLTCAWKINQNLAGYSQQDAHEFWQFIINQIHQSYVLDLPNAKEVSRANNKQCECIVHTVFEGSLESSIVCPGCQNNSKTTIDPFLDLSLDIKDKKKLYECLDSFHKKEQLKDFNYHCGECNSTQDAIKQLGIHKLPSVLVLQLKRFEHLLNGSNRKLDDFIEFPTYLNMKNYCSTKEKDKHSENGKVPDIIYELIGIVSHKGTVNEGHYIAFCKISGGQWFKFNDSMVSSISQEEVLKEQAYLLFYTIRQVN | soluble
16 | MGSDKIHHHHHHMDTQRIKDDEDAIRSALTSLKTATGIPVTMFATVLQDNRLQITQWVGLRTPALQNLVIEPGVGVGGRVVATRRPVGVSDYTRANVISHEKDSAIQDEGLHSIVAVPVIVHREIRGVLYVGVHSAVRLGDTVIEEVTMTARTLEQNLAINSALRRNGVPDGRGSLKANRVMNGAEWEQVRSTHSKLRMLANRVTDEDLRRDLEELCDQMVTPVRIKQTTKLSARELDVLACVALGHTNVEAAEEMGIGAETVKSYLRSVMRKLGAHTRYEAVNAARRIGALP | not soluble
17 | MSKNDHRITHNKSDKDNLDDDFSLFRDEVKGVKKLRQDTILHAPNRNPKQKEIRRTEREASDNDFYFSDEFMPHLTDEGPTRYARSDVSKYEVKRLRRGVYVPDVFLDMHGMTQQEAKRELGAMIAYCLKENVHCACVQHGIGKHILKQNVPLWLAQHPDVLAFHQAPLEFGGDGALLVLLSIPEK | not soluble
18 | MSLNILIIAFEGIEGSGKTSHLEATKKYLEKEGYGVVTFGLQMSKLIGDRIAQVKRNIIFERRTLFLAYVTDLADQIENYVKPSIDSGFIALADGYTLTLTSWGLTRGLEKEWIDDVLSMLPKPSISLPLISTPDEIVRRIIKKRGYLDPLETGIDICIKEDTFEAYIDYINRFQEALMSISSRENIIYTDKEFDEVQKEIVRRIDNITEGHHHHHH | soluble
19 | MRGSHHHHHHTDPALRARIGIDLGGTKTEVIALGDAGEQLYRHRLPTPRDDYRQTIETIATLVDMAEQATGQRGTVGMGIPGSISPYTGVVKNANSTWLNGQPFDKDLSARLQREVRLANDANCLAVSEAVDGAAAGAQTVFAVIIGTGCGAGVAFNGRAHIGGNGTAGEWGHNPLPWMDEDELRYREEVPCYCGKQGCIETFISGTGFAMDYRRLSGHALKGSEIIRLVEESDPVAELALRRYELRLAKSLAHVVNILDPDVIVLGGGMSNVDRLYQTVGQLIKQFVFGGECETPVRKAKHGDSSGVRGAAWLWPQEGLCGR | soluble
20 | MGSDKIHHHHHHMKRRDFLITSAAALSFLLSGCAIGDRVVEEPLTPKSNPPRKSVVYVLKTERREEAVSKLMQNFSDFEGSTVGLKANYNSADPFPASTHPKTLSAIVDVLKEQKAEVFMAERSGMGNTSAVLKTMGILDLAREKGFTVIDLDSYDGWVLHQPEDSHWKKGYPFADIFLTVDSVIQTCCLKTHRFGGHFTMSLKNSVGMVARRWKGHDYMSELHTSPHMRKMIAEINVSYSPKIVIMDAIKGFSHGGPERGTVIEPGLMIASNDRVAIDAVGVAILRIHGTTPEVSKGSVFEQEQIARAIEIGLSSGEFEIIPANDDAEKICSEIEAVLWG | not soluble
